Results reported in article PMC4678825.

Target: Qβ replicase core complex (β-subunit, EF-Tu and EF-Ts), wild type (E. coli | bacteriophage Qβ)
Experiment: SEC-MALS

Work on “Qβ replicase core complex (β-subunit, EF-Tu and EF-Ts), wild type” yielded a stoichiometry N of 2.
